Measured values taken from patent US20150216998A1, “ENDO180-TARGETED PARTICLES FOR SELECTIVE DELIVERY OF THERAPEUTIC AND DIAGNOSTIC AGENTS” (QBI ENTERPRISES LTD., priority 2012, published 2015).

Tests used:
[1] = system: tested cell lines; assay: Internalization of anti-ENDO180 antibodies into the tested cell lines (confocal microscopy); assay type: cell-based; settings: unconjugated Abs followed by secondary FITC goat anti mouse Ab
Description: Internalization assays were performed in 24 well plates. 1×10^5 A549 or NRK-ENDO180 or NRK naive cells were seeded on cover slips in RPMI or DMEM medium respectively, supplemented with antibiotics, L-Glutamine and 10% fetal calf serum (Biological Industries, Beit Haemek, Israel).
For membrane staining, cells were stained with CellTracker™ DilC18 (5)-DS solution (Invitrogen, Carlsbad, Calif., USA), diluted 1:5000 with PBS. For cell membrane labeling, Concanavalin A, Alexa fluor 647 conjugate (10 μg/ml) (C21421, Invitrogen) was used. For nuclei staining, cells were stained with Hoechst (1:10,000 in PBS) (33258, Sigma). […] Subsequently, the cells were washed twice using cold PBS, fixated with 4% paraformaldehyde (PFA) and washed again with cold PBS. Membrane and nuclei staining were performed after fixation.
The cells were mounted using fluorescent mounting medium (Golden Bridge international, Mukilteo, Wash., USA) and fluorescence was measured using Andor Spinning disc confocal microscope and the Meta 510 Zeiss LSM confocal microscope. Laser beams at 405, 488, 561 and 650 nm were used for UV, Rhodamine, Concavaline A and CellTracker™, fluorophores excitation respectively. Serial optical sections of the cells were recorded for each treatment and the images were processed using Zeiss LSM Image browser software. […]

[2] = system: ENDO180 expressing cell lines; assay: FACS binding capacity screening, all tested ENDO180 expressing cell lines; assay type: cell-based
Description: For binding analysis, 3.5×10^5 cells were trypsinized, spun down, re-suspended with FACS buffer (1% fetal bovine serum in 1×PBS), incubated for 30 minutes on ice with anti ENDO180 mAbs (1 μg) and washed with 1 ml FACS buffer. mAb samples were incubated with a secondary FITC conjugated goat anti mouse IgG antibody (115-095-072) (1:100, 150 μg/ml) in 50 μl of FACS buffer 30 minutes on ice, resuspended in 1 ml FACS buffer and analyzed using a FACS Calibur flow cytometer.
Cell lines which express different ENDO180 receptor levels were tested: NRK+ (a normal rat kidney), DU145^+ (a human prostate adenocarcinoma), LLC^+ (a mouse Lewis lung carcinoma), DU145^− and LLC^− (control cell lines, which are low expressors of ENDO180 receptor levels, i.e. express the PIRES Puro empty plasmid), A549 (human lung carcinoma) and CT26 (mouse colon carcinoma). NRK+, DU145^+ and LLC^+ stably express ENDO180 receptor levels. A549 and CT26 express naturally unknown levels of ENDO180 receptor. The binding capacity of the above cell lines was compared using 4 different Abs: mAb 8D8 clone, mAb10C12 clone, minibody (MB) and anti-wnt minibody (negative control).
A new batch was tested and the secondary Ab was changed (FITC conjugated goat anti mouse IgG F(ab)2 fragment, 115-095-072, Jackson Immunoresearch). The new MB batch was labeled directly with protein labeling kit.

B1: MB: anti-ENDO180 scFv clone G7V, SEQ ID NO:6, also known as minibody (protein)
scFv: MKYLLPTAAAGLLLLAASGAHAQVQLVQSGGGLVKPGGSLRLSCAASGFTFSSYSMNWVRQAPGKGLEWVANIKPDGSERHSVDSVKGRFTISRDNSKNSLYLQMNSLRAEDTAVYYCARPGAGRLDYWGQGTLVTVSSGGGGSGGGGSGGGGSNFMLTQDAAVSVALGQTVRITCQGDSLRSYYASWYQQKPGQAPVLVVYGKNNRPSGIPDRFSGSSSGNTASLTITGAQAEDEADYYCNSRDSSGNPWAFGGGTKVTVLASGKPIPNPLLGLDSTHHHHHH
modifications: Polypeptide encoded by SEQ ID NO:5
internalization [1]: no internalization
binding capacity ([2]; all of the tested cell lines, first batch, secondary FITC Ab): weak binding capacity
binding capacity ([2]; new batch, labeled directly with protein labeling kit, FIGS. 4A-D): No significant improvement in binding capacity
